# Data published in article PMC4846438, “The crystal structure of human dopamine β-hydroxylase at 2.9 Å resolution” (Science Advances, 2016).
# Several values for one entry are separate records, joined by “and”; a condition that tells them apart may be missing. Equal values may be shown once.
# B1: soluble human dopamine β-hydroxylase, residues 40 to 617, FLAG-tagged (enzyme, UniProt P09172 40-617, looked up)
# chain: SAPRESPLPYHIPLDPEGSLELSWNVSYTQEAIHFQLLVRRLKAGVLFGMSDRGELENADLVVLWTDGDTAYFADAWSDQKGQIHLDPQQDYQLLQVQRTPEGLTLLFKRPFGTCDPKDYLIEDGTVHLVYGILEEPFRSLEAINGSGLQMGLQRVQLLKPNIPEPELPSDACTMEVQAPNIQIPSQETTYWCYIKELPKGFSRHHIIKYEPIVTKGNEALVHHMEVFQCAPEMDSVPHFSGPCDSKMKPDRLNYCRHVLAAWALGAKAFYYPEEAGLAFGGPGSSRYLRLEVHYHNPLVIEGRNDSSGIRLYYTAKLRRFNAGIMELGLVYTPVMAIPPRETAFILTGYCTDKCTQLALPPSGIHIFASQLHTHLTGRKVVTVLVRDGREWEIVNQDNHYSPHFQEIRMLKKVVSVHPGDVLITSCTYNTEDRELATVGGFGILEEMCVNYVHYYPQTQLELCKSAVDAGFLQKYFHLINRFNNEDVCTCPQASVSQQFTSVPWNSFNRDVLKALYSFAPISMHCNKSSAVRFQGEWNLQPLPKVISTLEEPTPQCPTSQGRSPAGPTVVSIGGGKG
# modifications: glycosylation at Asn64, Asn184, Asn344 and Asn566; intermolecular disulfides C528-C530 and C530-C528 between the two chains of the dimer
# notes: human dopamine β-hydroxylase, residues 40 to 617; the first 39 residues (signal anchor for type II membrane proteins) left out to obtain soluble DBH; the dimeric fraction was crystallised; A SeMet-labelled form was used for phasing only; also called DBH; dopamine β-monooxygenase; not shown: FLAG, C-terminal, kept
# Molecular target: the molecule itself
# Assay: SEC; Superdex 200 HR 16/60, 10 mM Hepes, 150 mM NaCl, pH 7.5, 1 ml/min; dimer and tetramer separated; they do not interconvert in the pH interval 4 to 9
protein,measurement,value
B1,stoichiometry N,2 and 4
